Measurements from patent US20170087188A1, “WNT INDUCED MOTILITY AND ENHANCED ENGRAFTMENT OF CELLS” (OTTAWA HOSPITAL RESEARCH INSTITUTE, priority 2014, published 2017).
Entries after “also recorded” stand apart in the source; their conditions may differ.

What was measured:
[1] = system: mdx mice; experiment: Transplantation of Wnt-treated satellite cells into TA of mdx mice; assay type: in vivo, mouse
Protocol: It is known that poor migration of myogenic cells upon intramuscular injection is a major hurdle for the development of cell based therapies for muscular dystrophy (Skuk et al., 2007). The present inventors tested whether satellite cells treated with Wnt7a ex vivo prior to transplantation would enhance engraftment. 10,000 satellite cells were isolated from Pax7-zsGreen mice by fluorescent activated cell sorting (Bosnakovski et al., 2008), treated with Wnt7a for 3 h; washed extensively; and transplanted into the TA of immunosuppressed dystrophin-deficient mdx mice that were injured with cardiotoxin 2 days before the procedure (FIG. 6A).
Transplantation of zsGreen-expressing satellite cells or myoblasts into mdx mice was performed as previously described (Bentzinger et al., 2013c). Before transplantation the cells were treated for 3 h with Wnt7a, Wnt5a, or Wnt3a (R&D Systems) at a concentration of 50 ng/mL for freshly isolated satellite cells or with 100 ng/mL for cultured cells. Myoblasts expressing tdTomato were transplanted into uninjured muscles of C57BL/6 mice that were implanted with an osmotic pump (Alzet) delivering FK506 (Sigma) at 2.5 mg/kg/day 3 days prior to the transplantations. In some experiments, the injection site was marked with blue fluorescent microspheres (2 μm, Life Technologies) that were added at a concentration of 1:100 (vol/vol) to the cell suspension. 10 μl of the cell-microsphere suspension was injected into the TA of each mouse using a Hamilton syringe.
Muscles frozen in liquid nitrogen were cut into 12 μm cross-sections. Cross-sections and cells were either fixed with ethanol (100%) or 2% PFA for 5 min, permeabilized with 0.1% Triton/0.1 M glycine/PBS for 10 min, blocked with 5% horse serum in PBS for several hours, and incubated with specific primary antibody in blocking buffer overnight at 4° C. Samples were subsequently washed with PBS and stained with appropriate fluorescently labeled secondary antibodies for 1 h at room temperature. After washing with PBS, samples were mounted with Permafluor (Fisher). Antibodies were as follows: chicken anti-GFP (Abcam, ab13970), mouse anti-Pax7 (DSHB), mouse anti-Dystrophin (7A10, DSHB), mouse anti-Rac1 (05-389, Millipore), mouse anti-Tubulin (Sigma, T9026), rabbit anti-Dvl2 (3224, Cell Signaling), rabbit anti-zsGreen (Clontech, 632474), rabbit anti-Laminin (Sigma, L9393), rabbit anti-HA (Millipore, 07-221).

[2] = system: mdx extensor digitorum longus (EDL) muscles; experiment: Muscle force measurement of mdx EDL muscles after satellite cell transplantation; assay type: in vivo, mouse; settings: 3,000 satellite cells treated ex vivo, compared to Veh.
Text: Under normal conditions, a portion of transplanted satellite cells will differentiate and fuse to muscle myofibers. In mdx mice, this process can be tracked by staining for restored dystrophin expression in muscle fibers. […] Similar to the stimulatory effect of Wnt7a on myogenic cell migration in vitro, clusters of dystrophin-expressing myofibers in muscles that were transplanted with Wnt7a-treated cells were highly dispersed and on average located maximally 3.7 mm apart. By contrast, transplantation of untreated cells gave rise to clusters of dystrophin-expressing myofibers that were on maximally 2.2 mm apart on average (FIGS. 6F and 6G).
Extensor digitorum longus (EDL) muscles were isolated three weeks following transplantation and attached to an electrode and a force sensor (Aurora Scientific), and incubated at 25° C. in buffered physiological saline (Krebs-Ringer) supplemented with glucose and oxygen. Twitch force was determined following a single electrical stimulus, while maximal force was generated by electrical stimulation at 100 Hz for 500 ms. Thereafter, muscle length and weight were measured and specific muscle force was calculated ((maximal force×optimal fiber length×muscle density)/muscle mass).

B1: Wnt7a: non-canonical Wnt polypeptide (R&D Systems) used to treat or load myogenic cells (protein, UniProt O00755 32-349, looked up)
Protein Wnt-7a: LGASIICNKIPGLAPRQRAICQSRPDAIIVIGEGSQMGLDECQFQFRNGRWNCSALGERTVFGKELKVGSREAAFTYAIIAAGVAHAITAACTQGNLSDCGCDKEKQGQYHRDEGWKWGGCSADIRYGIGFAKVFVDAREIKQNARTLMNLHNNEAGRKILEENMKLECKCHGVSGSCTTKTCWTTLPQFRELGYVLKDKYNEAVHVEPVRASRNKRPTFLKIKKPLSYRKPMDTDLVYIEKSPNYCEEDPVTGSVGTQGRACNKTAPQASGCDLMCCGRGYNTHQYARVWQCNCKFHWCCYVKCNTCSERTEMYTCK
With B1 the “enhanced engraftment of zsGreen-expressing cells” value ([1]; 10,000 satellite cells treated 3 h (50 ng/mL), mdx TA, after 3 weeks, vs Veh.) was 69%, the “numbers of endogenous satellite cells” value ([1]; Pax7+/zsGreen− cells in host mdx muscle, vs Veh.) was “not significantly changed; also recorded: not altered” and the “hypertrophy of dystrophin-expressing myofibers (minimal feret)” value ([1]; myofibers fused with Wnt7a treated satellite cells, mdx TA) was 116%. For the same molecule, the “proportion of zsGreen+ engrafted cells that express Ki67” value ([1]; satellite cells into mdx TA, vs Veh.) was “do not show more Ki67 staining; also recorded: did not alter”, the “maximal distance between clusters of dystrophin-expressing myofibers” value ([1]; satellite cells treated 3 h, mdx TA, average) was 3.7 mm and the “increase in number of myofibers expressing dystrophin” value ([1]; satellite cells treated 3 h, mdx TA, vs Veh.) was 486%. For the same molecule, the “increase in maximal specific force generation” value [2] was 18% and the “increase in twitch tension” value [2] was 30%.
